Test results published in US20070014720A1 (published 2007).

How the values were obtained:
[1] = molecular target: T1, human CD20 (human, UniProt P11836 1-297); assay: cell-based or functional assay
T1 sequence (looked up): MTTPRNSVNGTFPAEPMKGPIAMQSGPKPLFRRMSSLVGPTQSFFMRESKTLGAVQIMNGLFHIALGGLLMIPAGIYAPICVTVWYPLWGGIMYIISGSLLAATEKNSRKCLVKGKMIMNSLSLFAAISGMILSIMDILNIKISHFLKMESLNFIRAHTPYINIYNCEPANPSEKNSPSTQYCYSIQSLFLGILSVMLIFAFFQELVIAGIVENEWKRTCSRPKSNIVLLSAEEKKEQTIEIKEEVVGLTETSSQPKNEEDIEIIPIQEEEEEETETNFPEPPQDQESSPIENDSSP

[2] = molecular target: T1, human CD20; assay: FACS KD on SB cells expressing CD20 (GMF against mAb concentration, nonlinear fit)
Experimental: The affinity of purified antibodies against CD20 (mAbs 1.1.2, 1.2.1, 2.1.2, 1.3.3, 1.5.3, 1.10.3.1, 1.13.2), Rituximab (positive control), and B1 was determined by FACS. Briefly, SB cells expressing CD20 were resuspended in FACS buffer (2% FBS, 0.05% NaN₃) at a concentration of approximately 5 million cells/mL. HSB cells were also resuspended in FACS buffer at a concentration of approximately 9 million cells/mL. Cells were kept on ice. Purified antibodies were serially diluted in filtered 1×PBS (2×) across 11 wells in 96-well plates. The twelfth well in each row contained buffer only. 1×PBS and cells were added to each mAb well such that the final volume was […] and each well contained approximately 375,000 cells. The final molecular concentration ranges for the mAbs were as follows:
Plates were placed on a plate shaker for 3 hours at 4° C., then spun and washed 3× with PBS. 200 μL of 145 nM Cy5 goat α-human polyclonal antibody was added to each well, and 200 μL of 192 nM Cy5 goat α-mouse polyclonal antibody was added to the cells complexed with B1 antibody. Plates were then incubated for 40 minutes at 4° C., then spun and washed 3× with PBS.
The Geometric Mean Fluorescence (GMF) of 10,000 cells for each mAb concentration was determined using a FACSCalibur instrument. No significant nonspecific binding (no significant signal) was apparent from the HSB cells. In each row containing the SB cells, the signal from the twelfth well (containing buffer only) was subtracted from the signal from the first 11 wells. A nonlinear plot of GMF as a function of molecular mAb concentration was fit using Scientist software using the equation: […]

Binder | % Lysis Daudi 0.001 µg/ml ADCC [1] | % Lysis Daudi 1 µg/ml ADCC [1] | % Lysis Raji 0.001 µg/ml ADCC [1] | % Lysis Raji 1 µg/ml ADCC [1] | % Lysis Ramos 0.001 µg/ml ADCC [1] | % Lysis Ramos 1 µg/ml ADCC [1] | EC50 µg/ml Daudi CDC [1] | EC50 µg/ml Raji CDC [1] | EC50 µg/ml Ramos Apoptosis Alamar Blue [1] | EC50 µg/ml Ramos Apoptosis Annexin V [1] | EC50 µg/ml Ramos Apoptosis Cell Titer Glo [1] | EC50 µg/ml Ramos Apoptosis WST-1 [1] | EC50 µg/ml Ramos CDC [1] | Kd [2]
mAb 1.13.2 (antibody, human IgG1, V domains shown, Human IgG1 kappa; also called 1.13.1; 50-001H1_13_1) VH: EVQLVQSGAEVKKPGESLKISCKGSGYSFTNYWIGWVRQMPGKGLEWMGIIYPGDSDTRYSPSFQGQVTISADKSISTAYLQWSSLKASDTAMYYCARQGDYYHYSGMDVWGQGTTVTVSS VL: DVVMTQSPLSLSVTLGQPASISCRSSQSLVYNDGDTYLNWFQQRPGQSPRLLIYKVSNWDSGVPDRFSGSGSGTDFTLKVSRVEAEDVGVYYCMQGTHWPLTFGGGTKVEIK | 24% | 74% | 5% | 21% | 4% | 33% | ~10 µg/mL | 3.54 µg/mL | 0.291 µg/mL | 2.97 µg/mL | 1.44 µg/mL | 0.096 µg/mL | 6.82 µg/mL | 23.6 nM
mAb 1.2.1 (antibody, human IgG1, V domains shown, Human IgG1 kappa; also called 1.2.1.1; 50-001H1_2_1_1) VH: EVQLVQSGAEVKKPGESLKISCKGSGYSFTSYWIGWVRQMPGKGLEWMGIIYPGDSDTRYSPSFQGQVTISADKSISTAYLQWSSLKASDTAMYYCARLGDYYNYYGMDVWGQGTTVTVSS VL: DIVMTQTPLSSPVTLGQPASISCRSSQSLVHSDGKTYLSWLQQRPGQPPRLLIYKSSNRFSGVPDRFSGSGAGTDFTLKISRVEAEDVGVYYCVQATQFPITFGQGTRLEIK | 56% | 86% | 8% | 45% | 8% | 67% | > 10 µg/mL | > 10 µg/mL |  |  | 15.2 µg/mL |  | > 10 µg/mL | 11.9 nM
mAb 1.6.2 (antibody, human IgG1, V domains shown) VH: EVQLVQSGAEVKKPGESLKISCKGSGYSFTSYWIGWVRQMPGKGLEWMGIIYPGDSDTRYSPSFQGQVTISADKSISTAYLQWSSLKASDTAMYYCARHGDYSNIDAFDIWGQGTMVTVSS VL: DVVMTQSPLSLPVTLGQPASISCRSSQSLVYSDGNAYLNWFQQRPGQSPRRLIYKVSNWDSGVPDRFSGSGSGTDFTLKIRRVEAEDVGAYYCMQGIHCTFGPGTKVHIK | 77% | 79% | 5% | 36% | 3% | 43% | ~10 µg/mL | 0.38 µg/mL | 0.16 µg/mL | 0.67 µg/mL | 0.476 µg/mL | 0.0393 µg/mL | 0.31 µg/mL | 
mAb 1.10.3.1 (antibody, human IgG1, V domains shown, Human IgG1 kappa; also called 50-001H1_10_3_1) VH: EVQLVQSGAEVKKPGESLKISCKGSGYSFTSYWIGWVRQMPGKGLEWMGIIYPGDSDTRYSPSFQGQVTISADKSISTAYLQWSSLKASDTAMYYCARMGDFWSGYYTRGMDVWGQGTTVTVSS VL: EIVMTQSPATLSVSPGERATLSCRASQSVSSNLAWYQQKPGQAPRLLISGASTRATGIPARFSGSGSGTEFTLTISSLQSEDFAVYYCHQYNDWSLTFGGGTKVEIK |  |  |  |  |  |  |  |  |  |  |  |  |  | 11.2 nM
mAb 2.1.2 (ATCC Accession Number PTA-7328) (antibody, human IgG1, V domains shown, Human IgG1 kappa; also called 2.1.1; 50-001H2_1_1) VH: EVQLVQSGAEVKKPGESLKISCKGSGYSFTSYWIGWVRQMPGKGLEWMGIIYPGDSDTRYSPSFQGQVTISADKSISTAYLQWSSLKASDTAMYYCARQGDFWSGYGGMDVWGQGTTVTVSS VL: DIVMTQTPHSSPVTLGQPASISCRSSQSLVSRDGNTYLSWLQQRPGQPPRLLIYKISNRFSGVPNRFSGSGAGTDFTLKISRVKAEDVGVYYCMQATQFPLTFGQGTRLEIK | 52% | 70% | 7% | 17% | 8% | 23% | 0.51 µg/mL | 0.3 µg/mL | 0.0329 µg/mL | 0.163 µg/mL | 0.0135 µg/mL | 0.0067 µg/mL | 0.16 µg/mL | 3.8 nM
mAb 1.9.2 (antibody, human IgG1, V domains shown) VH: EVQLVQSGAEVKKPGESLKISCKGSGYSFTSYWIGWVRQMPGKGLEWMGIIYPGDSDTRYSPSFQGQVTISADKSISTAYLQWSSLKASDTAMYYCARHGDFWSGYYSFDYWGQGTLVTVSS VL: not shown | 19% | 74% | 5% | 17% | 3% | 40% | > 10 µg/mL | 52.9 µg/mL |  |  | 0.528 µg/mL |  | > 10 µg/mL | 
mAb 1.1.2 (ATCC Accession Number PTA-7329) (antibody, human IgG1, V domains shown, also called 50-001H1_1_2) VH: EVQLVQSGAEVKKPGESLKISCKGSGYSFTSYWIGWVRQMPGKGLEWMGIIYPGDSDTRYRPSFQGQVTISADKSITTAYLQWSSLKASDTAMYYCARHPSYGSGSPNFDYWGQGTLVTVSS VL: not shown | 77% | 96% | 12% | 53% | 15% | 84% | 0.8 µg/mL | 0.4 µg/mL | 0.0481 µg/mL | 0.518 µg/mL | 0.041 µg/mL | 0.0055 µg/mL | 0.24 µg/mL | 11.1 nM
mAb 1.3.3 (antibody, V domains shown, Human IgG1 kappa) VH: EVQLVQSGAEVKKPGESLKISCKGSGYSFTSYWIGWVRQMPGKGLEWMGIIYPGDSDTRYSPSFQGQVTISADKSITTAYLQWSSLKASDTAMYYCARHPSYGSGSPNFDYWGQGTLVTVSS VL: not shown | 63% | 88% | 9% | 33% | 10% | 58% | 1.91 µg/mL | 0.22 µg/mL | 0.0485 µg/mL | 0.886 µg/mL | 0.332 µg/mL | 0.0096 µg/mL | 0.23 µg/mL | 8.9 nM
mAb 1.5.3 (ATCC Accession Number PTA-7330) (antibody, human IgG1, V domains shown, Fully human IgG1 kappa; also called 50-001H1_5_3) VH: EVQLVQSGAEVKKPGESLKISCKGSGYSFTSYWIGWVRQMPGKGLEWMGIIYPGDSDTRYSPSFQGQVTISADKSITTAYLQWSSLKASDTAMYYCARHPSYGSGSPNFDYWGQGTLVTVSS VL: not shown | 66% | 79% | 10% | 53% | 8% | 60% | ~10 µg/mL | 0.53 µg/mL | 0.08 µg/mL | 1.03 µg/mL | 0.191 µg/mL | 0.037 µg/mL | 2.56 µg/mL | 9.1 nM
